This is an account of results in patent US20230303681A1 (published 2023).

Substitutions are numbered along the chain they refer to. Where “and” joins values, the source holds several entries; their conditions need not be identical. Identical values can stand only once.

The chains are these.
B1: anti-TMEM106B antibody TM-35 (antibody, V domains shown)
VH: QVQLQQSGPELVRPGTSVKISCKAPGYTFTRHWMQWVRQRPGQGLEWIGEILPGSNNIYYNEKVKGKATLTVDTSSSTSYMQLSSLTSEDSAVYFCARSLYDYDGVFAYWGQGTLVTVSA
VL: DVLMTQIPLSLPVSLGDQASISCRSSQSIVHRNGNTYLEWYLQKPGQSPKLLIYKVSNRFSGVPDRFSGSGSGTDFTLKISRVEAEDLGVYYCFQGSHVPYTFGGGTKLEIK
B2: anti-TMEM106B antibody TM-48 (antibody, V domains shown)
VH: QVQLQQSGPELVKPGASVKLSCKASGYTFTSYDINWVKQRPGQGLEWIGWIYPRDGNTQYIEKLKGKATLTVDTSSSTAYMELHSLTSEDSAVYFCARWIFYAMDYWGQGTSVTVSS
VL: B1 VL with I7T, D17N, R32G, V99L
B3: anti-TMEM106B antibody TM-42 (antibody, V domains shown)
VH: QVQLQQSGAELAKPGASVKLSCKASGYTFTNYWMHWVKKRPGQGLEWIGYINPSSGYTKYNQKFKDKATLTADKSSNTAYMQLSSLTYEDSAVYYCTREGGSISDWYFDVWGTGTTVTVSS
VL: DIVMTQAAPSLPVTPGESVSISCRSSKSLLHSNGNTYLYWFLQRPGQSPQLLIYRMSNLASGVPDRFSGSGSGTAFTLRISRVEAEDVGVYYCMQHLEYPYTFGGGTKLEIK
B4: anti-TMEM106B antibody TM-45 (antibody, V domains shown)
VH: B3 VH
VL: B3 VL
B5: anti-TMEM106B antibody TM-37 (antibody, V domains shown)
VH: B3 VH with N31S, K39Q, I51V, Y60N, A68V, N77S, T97A
VL: B3 VL with L11V, L38S
B6: anti-TMEM106B antibody TM-39 (antibody, V domains shown)
VH: HVQRQQSGTELAKPGASVKLSCKTSGYTFTDYWMHWIKQRPGQGLEWIGFINPSSGYTKYNQNFKDKATLTADKSSSTAYMQLSSLTYEDSAVFYCAREAGSISDWYFDVWGTGTTVTVSS
VL: B3 VL with L11I, S28T, H31N, S48P, E98D, K108Q
B7: anti-TMEM106B antibody TM-46 (antibody, V domains shown)
VH: QVQLQQSGADLVKPGASVKISCKASGYAFSSFWMNWVKLRPGKGLEWIGQIYPGDGDTDYNGKFKDKATLTADTSSNTAYMQLSRLTSEDSAVYFCARGDGFSYFDYWGQGTILTVSS
VL: QIVLTQSPVIMSASPGERVTMTCCASSRVNYMHWYQQKSGSYPKRWIYDTSKLASGVPGRFSGSGSGTSYSLTISSMEAEDAATYYCQQWSSNPPTFGGGTKLEIK
B8: anti-TMEM106B antibody TM-51 (antibody, V domains shown)
VH: QVQLQQPGAELVKPGASVKLSCKASGYTFTTYWIDWVKQRPGQGLEWIGNMFPGSSRTNYNEKFKSRATLTVDTSSSTAYMQLSSLTSDDSAVYYCARKEGLWTYGYDGGAWFAYWGQGTLVTVSA
VL: DIVMSQSPSSLAVSVGEKVTMSCKSSQSLRNSRTRKNYLAWYQQKPGQSPKLLIYWASTRESGVPDRFTGSGSGTDFTLTISSVQAEDLAIYYCKQSYNLLTFGAGTKLELK
notes: mouse IgG from hybridoma
B9: anti-TMEM106B antibody TM-47 (antibody, V domains shown)
VH: QVQLKESGPVLVAPSQSLSITCTVSGFSLTNYGVHWVRQPPGKGLEWLGVIWAGGNTNYNSALMSRLSISKDNSKSQVFLKMNSLQTDDTAMYYCAKEAKLLRSYAMDYWGQGTSVTVSS
VL: DIVMTQSPSSLTVTAGEKVTMSCKSSQSLLNSGNQKNYLTWYQQKPGQPPKLLIYWASTRESGVPDRFTGSGSGTDFTLTISSVQAEDLAVYYCQNDYSYPLTFGAGTKLEIK
notes: mouse IgG from hybridoma
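Throughout, for Kd: antibodies amine-coupled on an MX-96 chip, antigen flowed at 500 nM top concentration in 5-fold serial dilutions, GST alone run as nonspecific-binding control, duplicate measurements.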
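Throughout, for fold over negative controls: hybridoma supernatants incubated 30 min on ice with human TMEM106B-expressing HEK293 cells, binding read as anti-mouse-APC median fluorescence on live cells, relative to secondary-antibody-only wells.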
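Throughout, for fold-change over parental HEK293: flow cytometry binding of hybridoma supernatants to HEK293 cells transiently expressing human, cyno or mouse TMEM106B, read as anti-mouse-APC median fluorescence, live cells only, 30 min on ice.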
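Throughout, for koff: antibodies amine-coupled on an MX-96 chip, antigen flowed at 500 nM top concentration in 5-fold serial dilutions, GST alone run as nonspecific-binding control, duplicate measurements.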
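Throughout, for kon: antibodies amine-coupled on an MX-96 chip, antigen flowed at 500 nM top concentration in 5-fold serial dilutions, GST alone run as nonspecific-binding control, duplicate measurements.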

One assay concerns the target T1, human TMEM106B (human, UniProt Q9NUM4 2-274).
T1 construct: Full-length, on transiently transfected HEK293 cells, or natively expressed on HeLa, U251 and A549 cells; also called huTMEM106B; huTMEM
The assay is described as follows: FACS A549.
Procedure: (§1) All cells were cultured in either T75 or T150 flasks. […] The enzyme was quenched by addition of fresh media, and the cells were then distributed into 96-well plates for FACS analysis.
(§2) FACS analysis was performed as follows. Each cell type was aliquoted in 96-well round bottom plates (2x10^5 cells per well), washed once with FACS buffer (PBS + 2% FBS + 1 mM EDTA), and incubated with 50 µL of hybridoma supernatant or purified antibody (10 µg/ml in FACS buffer) on ice for 1 hour. […] Following this secondary incubation, the cells were again washed 2x with ice-cold FACS buffer and resuspended in a final volume of 50 µL of FACS buffer + 0.25 µl/well propidium iodide (Fisher Scientific # BDB556463). Analysis was performed on a FACSCanto system (BD Biosciences) or iQue (Intellicyt), with sort gates drawn to exclude dead (i.e., propidium iodide positive) cells.
(§3) Data is presented as mean fluorescence intensity (MFI).
As to B1, the MFI amounted to 982.
B2: the MFI came to 677.
Still for that read-out and setting: as for B3, the figure is 947; as for B4, 819.
Same read-out and setting: as for B5, the figure is 1040.

Another assay addresses T1, human TMEM106B. The experiment in a line: FACS HeLa.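 Note: flow cytometry of cells incubated with hybridoma supernatant or purified antibody at 10 µg/ml for 1 h on ice, propidium iodide–positive dead cells gated out.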
B1 registered an MFI of 241.
B2 yielded an MFI of 219.
Still for that read-out and setting: as for B3, the figure is 215.
In the case of B4, the MFI was determined as 191.
Same read-out and setting: next, B5: 254.

Another assay addresses T1, human TMEM106B. The experiment in a line: FACS U251.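 Note: flow cytometry of cells exposed to antibody (purified at 10 µg/mL, or hybridoma supernatant) for 1 h on ice, with propidium iodide-positive dead cells gated out.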
Procedure: as §1, §2, §3
As to B1, the MFI turned out to be 370.
On the same count and under the same terms, as for B2, the figure is 346; as for B3, 326; as for B4, 517.
Same read-out and setting: as for B5, the figure is 408.

In another assay the target is T2, mouse TMEM106B (mouse, UniProt Q80X71 2-275).
T2 construct: on transiently transfected HEK293 cells, or natively expressed on mouse Neuro2a cells; also called moTMEM106B; murine TMEM106B
The assay is described as follows: FACS Neuro2a.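 Note: flow cytometry of cells stained with antibody or hybridoma supernatant (purified antibody at 10 µg/ml) for 1 h on ice, propidium iodide–positive dead cells gated out.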
Procedure: as §1, §2, §3
The molecule B1 returned an MFI of 181.
Same read-out and setting: as for B2, the figure is 292; as for B3, 237.
Still for that read-out and setting: as for B4, the figure is 187; as for B5, 208.

For the next assay, the target named is T1, human TMEM106B. The experiment in a line: FACS A549, 1 ug/ml.
Procedure: (§4) Purified anti-TMEM106B antibodies were evaluated for their binding affinity to various TMEM106B-expressing cell lines including HEK293 transiently transfected with human/cyno/mouse TMEM106B, as well as HeLa cells and A549 cells. Antibodies tested for this experiment were mouse IgGs purified from hybridoma supernatant. Affinity binding to cells was determined as follows. Briefly, 1x10^5 cells were aliquoted per well in 96-well round bottom plates and incubated with 50 µL of purified anti-TMEM106B antibody at various concentrations (10x dilutions starting at 10 µg/ml) in FACS buffer (PBS + 2% FBS + 1 mM EDTA). […] Sorting was performed on a iQue (Intellicyt), with sort gates drawn to exclude dead (propidium iodide +) cells. Binding data was analyzed using median fluorescent intensity (MFI) and graphed in Prism. Values presented are MFI.
B1 displayed an MFI of 3270.
For B2, the MFI was 1580.
Same read-out and setting: as for B3, the figure is 1780.
The molecule B6 yielded an MFI of 3610.
Same read-out and setting: as for B4, the figure is 1860; as for B5, 2980.

In a further assay the target is T1, human TMEM106B. The assay is described as follows: FACS A549, 10 ug/ml.
B1 came in with an MFI of 4200.
For the molecule B2, the MFI amounted to 2450.
Same read-out and setting: as for B3, the figure is 3300; as for B6, 5330.
On the same count and under the same terms, next, B4: 3240; B5: 4210.

In the next assay the target is T3, GST (Pierce) (UniProt P08515 1-218 = GST, limits assumed).
T3 construct: control for the GST part of the fusion protein; also called GST protein; Glutathione-S-transferase
The experiment in a line: array SPR, Ab immobilised.
Turning to B7, the binding result is given as “no binding”.
Same read-out and setting: as for B1, the entry is “no binding”; as for B2, “no binding”.
The same measure, in the same setting: next, B8: “no binding”; B9: “no binding”; B3: “no binding”.
On the same count and under the same terms, next, B6: “no binding”.
With B4, the binding result was “no binding”.
On the same count and under the same terms, next, B5: “no binding”.

A further assay has as its target T1, human TMEM106B. The experiment in a line: FACS, HEK293 transfectants.
Procedure: Initial screening of the anti-TMEM106B hybridomas was performed as follows.
For screening of the hybridoma cell culture supernatants, humanTMEM106B-transfected HEK293 cells were aliquoted in 96-well round bottom plates (2x10^5 cells per well) and incubated with 50 µL of hybridoma cell culture supernatant on ice for 30 minutes. […] Cell sorting was performed on a FACS Canto system (BD Biosciences) or iQue (Intellicyt), with sort gates drawn to exclude dead (i.e., propidium iodide-positive) cells. Median fluorescence intensity (MFI) of anti-mouse-APC MFI on TMEM106B+ HEK293 cells was calculated for each clone, and those displaying a signal of at least 2-fold over background compared to a secondary-antibody only well were taken forward for further analysis and characterization.
For the molecule B1, the “fold over negative controls” value was above 2 fold.
Same read-out and setting: as for B2, the figure is above 2 fold; as for B6, above 2 fold.

The next assay deals with T4, GST-fusion human TMEM106B truncated (human).
T4 construct: also called GST-TMEM106B-truncated protein; GST-TMEM106B (truncated)
The experiment in a line: array SPR, Ab immobilised.
Take B1: the Kd (as a rule, the equilibrium constant for the complex coming apart) was 6 nM and 6.8 nM; the koff (as a rule, the rate constant with which the complex falls apart) was 9e-05 s⁻¹ and 0.00011 s⁻¹; the kon (usually the rate constant with which the complex forms) is 15000 M⁻¹ s⁻¹ and 16000 M⁻¹ s⁻¹.
With B2, the Kd was 3.1 nM and 3.9 nM; the koff is 5.3e-05 s⁻¹ and 5.6e-05 s⁻¹; the kon is 17000 M⁻¹ s⁻¹ and 14000 M⁻¹ s⁻¹.
On to B3, for which the Kd was 33 nM and 24 nM.
Take B6: the Kd is 4.1 nM and 2.2 nM; the koff is 5.8e-05 s⁻¹ and 3e-05 s⁻¹; the kon is 14000 M⁻¹ s⁻¹.
As to B4, the Kd is 19 nM and 18 nM.
Regarding B5, the Kd was 2.6 nM and 6.3 nM.

A further assay has as its target T1, human TMEM106B. The experiment in a line: FACS HEK+huTMEM, 10 ug/ml.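 Note: purified mouse IgG antibodies at 10 µg/ml bound to HEK293 cells transiently expressing human TMEM106B, measured by flow cytometry as median fluorescence intensity of propidium iodide negative live cells.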
B1 returned an MFI of 48700.
Same read-out and setting: as for B2, the figure is 38200; as for B3, 60100; as for B6, 51900.
For the molecule B4, the MFI was 58100.
On the same count and under the same terms, next, B5: 50500.

The target of the next assay is T1, human TMEM106B. The experiment in a line: FACS, HEK293 transfectants. This is another data set of the same source.
Turning to B1, the “fold-change over parental HEK293” value came out at 11.5 fold.
On the same count and under the same terms, as for B2, the figure is 16.7 fold.

Another assay has as its target T5, cynomolgus (cyno) TMEM106B (cynomolgus, UniProt Q9NUM4 2-274 (human entry)).
T5 construct: on transiently transfected HEK293 cells
The experiment in a line: FACS, HEK293 transfectants. (In general: A flow cytometer gives signals particle by particle.)
B1: the “fold-change over parental HEK293” value was 14.7 fold.
The same measure, in the same setting: as for B2, the figure is 16.4 fold.

A further assay deals with T2, mouse TMEM106B. The experiment in a line: FACS, HEK293 transfectants.
On to B1, for which the “fold-change over parental HEK293” value was determined as 1.04 fold.
Still for that read-out and setting: as for B2, the figure is 28.5 fold.

A further assay has as its target T1, human TMEM106B. The experiment in a line: FACS HEK+huTMEM, 0.1 ug/ml.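 Note: flow cytometry binding of purified mouse IgG antibodies to HEK293 cells transiently expressing TMEM106B, read as median fluorescence intensity with propidium iodide positive dead cells gated out.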
Procedure: as §4
Molecule B1 showed an MFI of 22600.
The molecule B2 had an MFI of 21600.
As for B3, the MFI is 16700.
Turning to B6, the MFI came to 19200.
Still for that read-out and setting: as for B4, the figure is 21300; as for B5, 29400.

The target of the next assay is T1, human TMEM106B. The experiment in a line: FACS HEK+huTMEM, 1.0 ug/ml.
The molecule B1 had an MFI of 55400.
B2: the MFI was determined as 39900.
Still for that read-out and setting: next, B3: 58100.
Still for that read-out and setting: next, B6: 55600.
The same measure, in the same setting: next, B4: 57600.
As to B5, the MFI came out at 58700.

The next assay deals with T1, human TMEM106B. The experiment in a line: FACS HEK+huTMEM, 0.01 ug/ml.
Procedure: as §4
In turn, B1 returned an MFI of 4080.
With B2, the MFI was determined as 4050.
The molecule B3 came in with an MFI of 2070.
Still for that read-out and setting: next, B6: 3850; B4: 2500.
On the same count and under the same terms, next, B5: 3920.
